{
  "source": "patent US20070231333A1",
  "about": "“ANTI-5T4 ANTIBODIES AND USES THEREOF” (Wyeth, priority 2006, published 2007)",
  "molecules": {"B1": {"name": "A2: murine anti-5T4 monoclonal antibody (IgG2b heavy chain); VH residues 19-135 of SEQ ID NO:6, VL residues 23-130 of SEQ ID NO:8 (antibody, listed as Mus musculus, V domains shown)", "VH": "MEWRIFLFILSGTAGVHSQVQLQQSRPELVKPGASVKMSCKASGYTFTDYVISWVKQRTGQGLEWIGEIYPGSNSIYYNEKFKGRATLTADKSSSTAYMQLSSLTSEDSAVYFCAMGGNYGFDYWGQGTTLTVSS", "VL": "MDFQVQIFSFLLISASVIMSRGQIVLTQSPAIMSASLGERVTLTCTASSSVNSNYLHWYQQKPGSSPKLWIYSTSNLASGVPARFSGSGSGTSYSLTISSMEAEDAATYYCHQYHRSPLTFGAGTKLELK", "modifications": "(1)..(18) leader sequence; (19)..(135) heavy chain variable region; (44)..(53) CDR1; (68)..(84) CDR2; (117)..(124) CDR3; (1)..(22) leader sequence; (23)..(130) light chain variable region; (46)..(56) CDR1; (73)..(79) CDR2; (112)..(120) CDR3"}},
  "key": {"[1]": {"tested_on": "human/mouse 83-163 5T4 chimera", "experiment": "Epitope mapping ELISA, human/mouse 5T4 chimeras", "format": "binding", "parameters": "key: +: binding; −: no binding; +/−: partial binding", "experimental": "(§1) To identify the epitopes to which each of the A1, A2, A3, and H8 antibodies bind, ELISA assays were performed using (1) 5T4 ectodomain Fc constructs with deleted or mutated sequences, and (2) 5T4 chimera constructs transiently expressed in COS-1 cells. The ectodomain includes the amino-terminal region, two leucine-rich repeats, and the intervening hydrophilic region. Fusion proteins containing a 5T4 ectodomain and a Fc constant regions from human IgG1 were prepared using mouse 5T4 (amino acids 1-361), rat 5T4 (amino acids 1-361), cynomologous monkey 5T4 (amino acids 1-355), chimpanzee 5T4 (amino acids 1-355), and black-tailed marmoset (amino acids 1-355). The 5T4 chimera constructs are depicted in FIG. 5. The binding results are summarized in Table 5, which indicates specific binding, partial binding, or lack of binding, by each of the H8, A1, A2, and A3 antibodies."}, "[2]": {"tested_on": "human/mouse 282-361 5T4 chimera (with or without N-link at position 344)", "experiment": "Epitope mapping ELISA, human/mouse 5T4 chimeras", "format": "binding", "parameters": "key: +: binding; −: no binding; +/−: partial binding", "settings": "human/mouse 282-361 (with or without N-link at position 344)", "experimental": "as §1"}, "[3]": {"biological_target": "T1, human/mouse 173-361 5T4 chimera (Homo sapiens, UniProt Q13641, A205S/A340S/D319A/E189Q/E336D/G276S/G317D/H238Y/H301Y/I287V/I347V/INS199AFEGMV/L204R/L281W/P285A/P346A/P350Q/Q210R/Q282H/Q316P/R193G/R207L/R213T/R288K/S242R/T307A/V176E/V200A/V229L/V252A/V333G/Y224F/Y325F)", "T1 construct": "made in house; host or cells: COS-1 cells (transient)", "T1 sequence (Q13641 with tags, fused parts or gaps V176E/E189Q/R193G/INS199AFEGMV/V200A/L204R/A205S/R207L/Q210R/R213T/Y224F/V229L/H238Y/S242R/V252A/G276S/L281W/Q282H/P285A/I287V/R288K/H301Y/T307A/Q316P/G317D/D319A/Y325F/V333G/E336D/A340S/P346A/I347V/P350Q limits assumed)": "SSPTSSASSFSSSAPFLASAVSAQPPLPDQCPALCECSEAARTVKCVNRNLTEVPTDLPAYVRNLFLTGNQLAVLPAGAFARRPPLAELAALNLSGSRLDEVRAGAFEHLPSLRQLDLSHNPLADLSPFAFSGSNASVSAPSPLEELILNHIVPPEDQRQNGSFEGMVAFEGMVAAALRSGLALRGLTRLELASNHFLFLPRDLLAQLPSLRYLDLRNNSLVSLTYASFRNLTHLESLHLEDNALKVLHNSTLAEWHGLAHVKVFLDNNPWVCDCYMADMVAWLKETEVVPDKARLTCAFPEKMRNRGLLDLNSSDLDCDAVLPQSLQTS", "experiment": "Epitope mapping ELISA, human/mouse 5T4 chimeras", "format": "binding", "parameters": "key: +: binding; −: no binding; +/−: partial binding", "experimental": "as §1"}, "[4]": {"biological_target": "T2, 5T4-expressing PC14PE6 cells (Homo sapiens, UniProt Q13641)", "T2 construct": "endogenous in cells; host or cells: PC14PE6 cells", "T2 sequence (Q13641 32-420)": "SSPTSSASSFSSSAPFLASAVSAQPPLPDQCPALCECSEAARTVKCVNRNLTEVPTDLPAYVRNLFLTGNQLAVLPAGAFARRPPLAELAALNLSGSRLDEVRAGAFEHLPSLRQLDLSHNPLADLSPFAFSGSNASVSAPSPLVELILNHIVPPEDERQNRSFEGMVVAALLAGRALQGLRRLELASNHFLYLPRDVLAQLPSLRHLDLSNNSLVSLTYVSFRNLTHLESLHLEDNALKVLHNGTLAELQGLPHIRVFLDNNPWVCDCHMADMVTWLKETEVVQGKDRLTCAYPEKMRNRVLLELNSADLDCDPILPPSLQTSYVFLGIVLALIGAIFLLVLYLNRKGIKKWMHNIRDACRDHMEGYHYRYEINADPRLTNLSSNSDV", "experiment": "FACS binding to 5T4-expressing PC14PE6 cells", "format": "cell-based", "experimental": "The ability of the H8, A1, A2, and A3 antibodies to bind cells expressing 5T4 antigen was assayed using fluorescence activated cell sorting (FACS) of PC14PE6 cells."}},
  "data": [
    {"molecule": "B1", "values": [
      {"measurement": "binding to 5T4 antigen construct", "setting": "[1]", "result": "+"},
      {"measurement": "binding to 5T4 antigen construct", "setting": "[2]", "result": "−"},
      {"measurement": "binding to 5T4 antigen construct", "setting": "[3]", "result": "−"},
      {"measurement": "binding to 5T4-expressing PC14PE6 cells (in words)", "setting": "[4]", "result": "significantly lower"}
    ]}
  ]
}
